The record followed here is publication PMC10090080.

Broadly, the stoichiometry N is a count of units in the complex or per binding partner.

The target in experiment [1] is pUL93 (human cytomegalovirus strain AD169). In words: cryo-EM structure.
The target in experiment [2] is portal protein pUL104 (human cytomegalovirus strain AD169). In words: cryo-EM structure.

pUL77 (natural protein) had a stoichiometry N in experiment [1] of 2.
For the substance portal protein pUL104 (natural protein), the stoichiometry N in experiment [2] was 12.
